Measured values taken from paper PMC8967717 (Nature, 2022).

Experiments:
[1] = biological target: SARS-CoV-2 wild-type spike (S) protein (SARS-CoV-2, WT (MN908947), UniProt P0DTC2)
[2] = biological target: T1, SARS-CoV-2 wild-type spike receptor-binding domain (SARS-CoV-2, WT (MN908947), UniProt P0DTC2)
[3] = biological target: T1, SARS-CoV-2 wild-type spike …; assay: BLI; details: both partners purified
[4] = biological target: SARS-CoV-2 wild-type spike N-terminal domain (SARS-CoV-2, WT (MN908947), UniProt P0DTC2); assay: ELISA; details: both partners purified

Row | Binder | binding result [1] | binding result [2] | Kd [3] | binding result [4]
1 | XGv302 (antibody, V domains shown) VH: EVQLVESGGGLIQPGGSLRLSCAASGITVSSNYMNWVRQAPGKGLEWVSVIYAGGTTFYADSVKGRFTISRDSSKNTLSLQMNSLRVEDTAVYYCVRNLVVYGMDVWGQGTTVTVSS VL: DIQLTQSPSSLSASVGDRVTITCRASQGISSDLAWYQQKPGKAPKLLIYGASTLQSGVPSRFSGSGSGAHFTLTINSLQPEDFAIYYCQQLNSEFLTFGGGTKVEIK | binds | binds | – | –
2 | XGv303 (antibody, V domains shown) VH: EVQLVESGGGLIRPGGSLRLSCAASGITVSSNYMTWVRQAPGKGLEWVSVIYSGGTTFYADSVKGRFTISRDNSKNTLYLQMNSLRAEDTAVYYCARNLVVYGMDVWGQGTTVTVSS VL: DIQLTQSPSSLSASVGDRVTITCRASQGISSDLAWYQQKPGKAPKLLIYGASTLQGGVPSRFSGSGSGTDFTLTISRLQPEDCAIYYCQQLNSEFLTFGGGTKVEIK | binds | binds | – | –
3 | XGv304 (antibody, V domains shown) VH: EVQLVESGGGLIQPGGSLRLSCEASEITVSSNYMRWVRQAPGKGLEWVSLIYAGGSTFYADSVKGRFTISRDNSKNTLYLQMNSLRVEDTAVYYCARDLMVYGMDVWGQGTTVTVSS VL: DIQLTQSPSSLSASVGDRVTITCRASQGISSYLAWYQQKPGKAPNLLIYGASTLQSGVPSRFSGSGSGTDFTLTISSLQPEDFATYYCQHLNSDPLTFGGGTKVEIK | binds | binds | – | –
4 | XGv402 (antibody, V domains shown) VH: QVQLVESGGGVVQPGRSLRLSCAASGFTFNNYAMHWVRQAPGKGLEWVAVISYDGSNEFYLDSVKGRFAISRDNSKNTLYLQTNSLRGEDTAVYYCARESRRGADYWGQGTLVTVSS VL: DIQMTQSPSSLSASVGDRVTITCRASQIISNYLNWYQQKPGKAPKLLIYAASSLQSGVPSRFSGSGSGTDFTLTISSLQPEDSATYYCQQSFSPLWTFGPGTKVEIK | binds | binds | – | –
5 | XGv387 (antibody, V domains shown) VH: EVQLVESGGGLIQPGGSLRLSCAASGVIVSSNYMSWVRQAPGKGLEWVSVMYSGGSTFYADSVKGRFTISRDNSKNTLYLQMNRLRAEDTAVYFCARGDGGSYLGGAFDIWGQGTMVTVSS VL: DIQMTQSPSSLSASVGDRVTLTCRASQSISTYLNWYQQKPGKAPKLLIYAASSLQSGVPSRFSGSGSGTDFTLTINSLQPEDFATYYCQQSYSLPALTFGGGTKVEIK | binds | binds | – | –
6 | XGv265 (antibody, V domains shown) VH: QITLKESGPTLVKPTQTLTLTCNFSGFSLNTYGVGVGWIRQPPGKALEWLALIYWDGDERYGPFFKNKVTIAKDTSKNQVVLTMTNMDPVDTATYYCARHLIPTIFDYWGQGTLVTVSS VL: QSALTQPASVSGSPGQSITISCTGTSSDVGGSNYVSWYQHHPDRAPKLLIYEVTNRPSGVSNRFSGSKSANTASLTISGLQAEDEADYYCSSYTTTSTHILFGGGTKLTV | – | – | 0.59 nM | –
7 | XGv338 (antibody, V domains shown) VH: EVQLVESGGGLVQPGGSLRLSCAASGFPFITYWMSWVRQTPGKGLEWVANIKEDGSEKNYVDSVKGRFTVSRDNAENSLYLRMNSLRIEDTAVYYCAREIRRTIPTSGMDVWGQGTTVTVSS VL: SYELTQPPSVSVSPGQTARITCTGDALPKQYAYWYQQKPGQAPVLIISKDNERASGIPERISGSRSGTTVTLTISGVQAEDEADYYCQSADSSASYSYVFGTGTKVTVL | binds | binds | – | –
8 | XGv293 (antibody, V domains shown) VH: QVQLVQSGAEVKKPGASVKVSCKASGYTFTSYFLHWVRQAPGQGLEWLGIIDPSGGASYAQKFQGRVTMTSDTSTSTVYMDLGSLRSEDTAVYYCARAEGTSWLGWFDPWGQGSLVTVSS VL: QSVLTQPPSASGTPGQRVTISCSGSSSNIGTNYVYWYQQLPGTAPKLLIYRNYQRPSGVPDRFSGSKSGTSASLAISGLRSEDEAEYYCAAWDNGLSGSGWVFGGGTKLTVL | binds | binds | – | –
9 | XGv297 (antibody, V domains shown) VH: QVQLVQSGAEVKKPGASVKVSCRTSGYTFTAYYIHWVRQVPGQGLEWMGIINPSGGGASYAQTFQGRVSLTRDTSTRTVYMDLSSLISEDTAVYYCARAEGTHWLGWFDPWGQGTLVTVSS VL: QSVLTQPPSASGTPGQRVTISCSGSSSNIASNSVYWYQQLPGTAPKLLIYRNNQRPSGVPDRFSGSTSGTSASLAISGLRSEDEADYYCAAWDDNLSGSGWVFGGGTKLTVL | binds | binds | – | –
10 | XGv295 (antibody, V domains shown) VH: QVQLVQSGAEVKKPGASVKVSCKASGYIFTNYYIHWVRQAPGQGLEWMAIFNPSAATASYAQKFQGRVTMTRDTSTTTVYMELRSLRFDDTAVYYCARAEGTSWLGWFDPWGQGTLVTVSS VL: QSVLTQPPSASGTPGQRVTVSCSGSSSNIGSHDVYWYQQLPGTAPKLLIYKNDQRPSGVPDRFSGSTSGTSASLAISGLRSEDEADYYCAAWDDGLSGSGWVFGGGTKLTVL | binds | binds | – | –
11 | XGv289 (antibody, V domains shown) VH: QVQLVQSGAEVKKPGASLKVSCRASGYTFTSHFIHWVRQAPGQGLEWMGIINPSGGASYAQNFRDRVTMTTDPSTSTVYMELGSLRSEDTAVYYCARAEGSSWLGWFDPWGQGTLVTVSS VL: QSVLTQPPSASGTPGQRVTIPCSGSSSNIGNNYVYWYQQLPGTAPKLLVYGNNQRPSGVPDRFSVSKSGTSASLAISGLRSEDEADYYCAAWDDGLSGSGWVFGGGTKLTVL | – | – | 0.515 nM | no binding
12 | XGv294 (antibody, V domains shown) VH: QVQLVQSGAEVKKPGASVKVSCKASGYTFTRHYIHWVRQAPGQGLEWMGIINPSGGGASYAQKFQGRVTMTRDTSTSTVYMEVSSLRYEDTAVYYCARAEGGSWLGWFDPWGQGTLVTVSS VL: QSVLTQPPSASGTPGQRVTISCSGGSSNIGNNYVYWYQQLPGTAPKLLIYGNNQRPSGVPDRFSGSKSGTSASLAISGLRSEDEADYHCAAWDDGLSGSGWVFGGGTKLT | binds | binds | – | –
13 | XGv282 (antibody, V domains shown) VH: QVQLVQSGAEVKKPGSSVKVSCKASGDTFSSYTFSWVRQAPGQGLEWMGRSIPIVGKAIYAQEFQGRVTISADRSTTTVYMELSSLRSDDTAVYYCARDQSGFDFFYYDHWGQGTLVAVSS VL: QSVLTQPPSASGTPGQRVTISCSGSGSNIGSNTINWYQQLPGTAPKVLIYRNNERPSGVPDRFSGSKSGTSASLTISGLQSEDEAYYHCAAWDDSLNGPVFGGGTKLTVL | – | – | 0.344 nM | no binding
14 | XGv347 (antibody, V domains shown) VH: QMQLVQSGPEVKKPGTSVKVSCKASGFTFTDVSSLQWVRQARGQRLEWIGWTVVGTGNTNYAPRFQERVTITTDKSTSTAYMELSSLRSEDTAVYYCAAPFCSETSCSDGFDLWGQGTKVTVSS VL: EIVLTQSPGTLSLSPGDRATLSCRASQSVRISYLAWYQQKPGQAPRLLISGSSSRATGIPDRFSASGSGTDFALTISRLEPEDFAVYYCQQYDNSPWTFGQGTKVEVK | – | – | 0.0814 nM | no binding
15 | XGv296 (antibody, V domains shown) VH: QVQLVQSGAEVKKPGASVKISCKASGYTFTDHYVHWVRQAPGQGLEWMAIVNPSDGSTSYAQKFQGRVTMTSDTSTTTIYMELSSLRSGDTAVYYCARAEGSSWLGWFDPWGQGTQVTVSS VL: QSVLTQPPSASGTPGQRVTISCSGSSSNIGGHYVYWYQQFPGTAPKLLIYRSNQRPSGVPDRFSGSKSGTSASLAISGLRSEDEADYFCAAWDDGLRGSGWVFGGGTTLTV | binds | binds | – | –
16 | XGv420 (antibody, V domains shown) VH: QVQLQESGPGLVKPSGTLSLTCAVSGGSINSNNWWSWVRQPPGKGLEWIGEIYHNGNTNYNPSLKSRVTISVDTSKNQFSLRLSSVTAADTAVYYCARGDSLDWFDPWGQGTLVTVSS VL: QSALTQPASVSGSPGQSITISCTGTSSDVGSYNYVSWYQQLPGKAPKLMIYDVSNRPSGVSNRFSGSKSGNTASLTISGLQAEDEADYYCSSYTSSSTLVFGTGTKVTVL | binds | binds | – | –
17 | XGv345 (antibody, V domains shown) VH: QVQLQESGPGLVKPSQTLSLTCTVSGGSIRSGSYYWSWIRQPAGKGLEWIGRVYTSGSTNYNPSLKTRVTISLETSKNHFSLKLSSVTAADTAVYYCARGEWEEDFALWGRGTLVTVSS VL: DIQMTQSPSSLSASVGDRVTITCRASQSIASHLNWYQQKPGKAPKLLIYGASTLQSGVPSRFSGSGSGTAFTLTISSVQPEDFATYYCQQSYSAITFGQGTRLEIK | binds | binds | – | –
